From patent publication US10450368

Key:
Centromere B [1] = biological target: Centromere B (UniProt P07199); assay: AtheNA, Ab 25 ug/ml
Histones [2] = assay: AtheNA, Ab 25 ug/ml
Jo-1 [3] = biological target: Jo-1 (UniProt P12081); assay: AtheNA, Ab 25 ug/ml
RNP (ribonucleoprotein) [4] = assay: AtheNA, Ab 25 ug/ml
SSA [5] = assay: AtheNA, Ab 25 ug/ml
SSB [6] = biological target: SSB (UniProt P05455); assay: AtheNA, Ab 25 ug/ml
Scl-70 [7] = biological target: Scl-70 (UniProt P11387); assay: AtheNA, Ab 25 ug/ml
Chain of Scl-70 (P11387 whole entry): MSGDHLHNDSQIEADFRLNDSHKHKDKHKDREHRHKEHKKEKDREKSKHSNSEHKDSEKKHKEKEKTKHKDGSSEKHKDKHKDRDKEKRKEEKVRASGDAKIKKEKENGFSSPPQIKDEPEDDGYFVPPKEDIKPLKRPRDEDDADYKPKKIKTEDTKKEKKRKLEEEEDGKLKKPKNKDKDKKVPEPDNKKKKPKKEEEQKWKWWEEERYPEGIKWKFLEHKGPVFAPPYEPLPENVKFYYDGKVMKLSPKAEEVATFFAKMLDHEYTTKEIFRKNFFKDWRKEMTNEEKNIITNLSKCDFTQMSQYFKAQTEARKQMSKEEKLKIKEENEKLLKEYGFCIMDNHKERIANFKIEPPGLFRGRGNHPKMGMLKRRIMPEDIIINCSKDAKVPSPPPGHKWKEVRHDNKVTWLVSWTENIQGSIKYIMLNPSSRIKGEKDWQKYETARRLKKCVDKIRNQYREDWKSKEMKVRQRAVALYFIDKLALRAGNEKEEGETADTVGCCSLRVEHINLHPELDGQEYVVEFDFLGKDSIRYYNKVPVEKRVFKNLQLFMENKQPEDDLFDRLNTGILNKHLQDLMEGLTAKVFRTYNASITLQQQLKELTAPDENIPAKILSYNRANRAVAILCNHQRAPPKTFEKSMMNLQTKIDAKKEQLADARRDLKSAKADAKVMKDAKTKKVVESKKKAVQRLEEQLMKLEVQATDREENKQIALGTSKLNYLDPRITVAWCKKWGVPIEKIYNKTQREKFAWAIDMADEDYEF

Sm (Smith antigen) [8] = assay: AtheNA, Ab 25 ug/ml
Jo-1 [9] = biological target: Jo-1 (UniProt P12081); assay: AtheNA, Ab 50 ug/ml
SSB [10] = biological target: SSB (UniProt P05455); assay: AtheNA, Ab 50 ug/ml
Centromere B [11] = biological target: Centromere B (UniProt P07199); assay: AtheNA, Ab 25 ug/ml; remark: listed apart in the source
Histones [12] = assay: AtheNA, Ab 25 ug/ml; remark: listed apart in the source
Jo-1 [13] = biological target: Jo-1 (UniProt P12081); assay: AtheNA, Ab 25 ug/ml; remark: listed apart in the source
RNP (ribonucleoprotein) [14] = assay: AtheNA, Ab 25 ug/ml; remark: listed apart in the source
SSA [15] = assay: AtheNA, Ab 25 ug/ml; remark: listed apart in the source
SSB [16] = biological target: SSB (UniProt P05455); assay: AtheNA, Ab 25 ug/ml; remark: listed apart in the source
Scl-70 [17] = biological target: Scl-70 (UniProt P11387); assay: AtheNA, Ab 25 ug/ml; remark: listed apart in the source
Sm (Smith antigen) [18] = assay: AtheNA, Ab 25 ug/ml; remark: listed apart in the source
Jo-1 [19] = biological target: Jo-1 (UniProt P12081); assay: AtheNA, Ab 50 ug/ml; remark: listed apart in the source
SSB [20] = biological target: SSB (UniProt P05455); assay: AtheNA, Ab 50 ug/ml; remark: listed apart in the source
Centromere B [21] = biological target: Centromere B (UniProt P07199); assay: AtheNA, Ab 12.5 ug/ml
Histones [22] = assay: AtheNA, Ab 12.5 ug/ml
Jo-1 [23] = biological target: Jo-1 (UniProt P12081); assay: AtheNA, Ab 12.5 ug/ml
RNP (ribonucleoprotein) [24] = assay: AtheNA, Ab 12.5 ug/ml
SSA [25] = assay: AtheNA, Ab 12.5 ug/ml
SSB [26] = biological target: SSB (UniProt P05455); assay: AtheNA, Ab 12.5 ug/ml
Scl-70 [27] = biological target: Scl-70 (UniProt P11387); assay: AtheNA, Ab 12.5 ug/ml
Sm (Smith antigen) [28] = assay: AtheNA, Ab 12.5 ug/ml
Centromere B [29] = biological target: Centromere B (UniProt P07199); assay: AtheNA, Ab 6.25 ug/ml
Histones [30] = assay: AtheNA, Ab 6.25 ug/ml
Jo-1 [31] = biological target: Jo-1 (UniProt P12081); assay: AtheNA, Ab 6.25 ug/ml
RNP (ribonucleoprotein) [32] = assay: AtheNA, Ab 6.25 ug/ml
SSA [33] = assay: AtheNA, Ab 6.25 ug/ml
SSB [34] = biological target: SSB (UniProt P05455); assay: AtheNA, Ab 6.25 ug/ml
Scl-70 [35] = biological target: Scl-70 (UniProt P11387); assay: AtheNA, Ab 6.25 ug/ml
Sm (Smith antigen) [36] = assay: AtheNA, Ab 6.25 ug/ml
CH505.M10D8gp120 = assay: direct-binding ELISA
CH505.M11D8gp120/293F = assay: direct-binding ELISA
CH505.M19D8gp120 = assay: direct-binding ELISA
CH505.M21D8gp120/293F = assay: direct-binding ELISA
CH505.M5D8gp120293F = assay: direct-binding ELISA
CH505.M7D8gp120/293F = assay: direct-binding ELISA
CH505.M9D8gp120/293F = assay: direct-binding ELISA
[37] = biological target: CH505.TF mutant gp120 M20 (HIV-1); assay: direct-binding ELISA
[38] = biological target: CH505.TF mutant gp120 M6 (HIV-1); assay: direct-binding ELISA
[39] = biological target: CH505.TF mutant gp120 M8 (HIV-1); assay: direct-binding ELISA
[40] = biological target: CH505_w137V201B12.D11gp120 (HIV-1); assay: direct-binding ELISA
[41] = biological target: CH505_w137V209C12.D11gp120 (HIV-1); assay: direct-binding ELISA
[42] = biological target: CH505w136.B10D8gp120 (HIV-1); assay: direct-binding ELISA
[43] = biological target: CH505w136.B12D8gp120 (HIV-1); assay: direct-binding ELISA
[44] = biological target: CH505w136.B18D8gp120 (HIV-1); assay: direct-binding ELISA
[45] = biological target: CH505w136.B20D8gp120 (HIV-1); assay: direct-binding ELISA
[46] = biological target: CH505w136.B27D8gp120 (HIV-1); assay: direct-binding ELISA
[47] = biological target: CH505w136.B29D8gp120 (HIV-1); assay: direct-binding ELISA
[48] = biological target: CH505w136.B2D8gp120/293F (HIV-1); assay: direct-binding ELISA
[49] = biological target: CH505w136.B36D8gp120 (HIV-1); assay: direct-binding ELISA
[50] = biological target: CH505w136.B3D8gp120/293F (HIV-1); assay: direct-binding ELISA
[51] = biological target: CH505w136.B4D8gp120 (HIV-1); assay: direct-binding ELISA
[52] = biological target: CH505w136.B5D8gp120 (HIV-1); assay: direct-binding ELISA
[53] = biological target: CH505w136.B8D8gp120 (HIV-1); assay: direct-binding ELISA
[54] = biological target: CH505w160.A1D8gp120 (HIV-1); assay: direct-binding ELISA
[55] = biological target: CH505w160.C11D8gp120 (HIV-1); assay: direct-binding ELISA
[56] = biological target: CH505w160.C12D8gp120 (HIV-1); assay: direct-binding ELISA
[57] = biological target: CH505w160.C14D8gp120 (HIV-1); assay: direct-binding ELISA
[58] = biological target: CH505w160.C2D8gp120 (HIV-1); assay: direct-binding ELISA
[59] = biological target: CH505w160.C4D8gp120 (HIV-1); assay: direct-binding ELISA
[60] = biological target: CH505w160.D1D8gp120 (HIV-1); assay: direct-binding ELISA
[61] = biological target: CH505w160.D5D8gp120/293F (HIV-1); assay: direct-binding ELISA
[62] = biological target: CH505w160.T2D8gp120 (HIV-1); assay: direct-binding ELISA
[63] = biological target: CH505w160.T4D8gp120/293F (HIV-1); assay: direct-binding ELISA

Chain of Centromere B (P07199 whole entry): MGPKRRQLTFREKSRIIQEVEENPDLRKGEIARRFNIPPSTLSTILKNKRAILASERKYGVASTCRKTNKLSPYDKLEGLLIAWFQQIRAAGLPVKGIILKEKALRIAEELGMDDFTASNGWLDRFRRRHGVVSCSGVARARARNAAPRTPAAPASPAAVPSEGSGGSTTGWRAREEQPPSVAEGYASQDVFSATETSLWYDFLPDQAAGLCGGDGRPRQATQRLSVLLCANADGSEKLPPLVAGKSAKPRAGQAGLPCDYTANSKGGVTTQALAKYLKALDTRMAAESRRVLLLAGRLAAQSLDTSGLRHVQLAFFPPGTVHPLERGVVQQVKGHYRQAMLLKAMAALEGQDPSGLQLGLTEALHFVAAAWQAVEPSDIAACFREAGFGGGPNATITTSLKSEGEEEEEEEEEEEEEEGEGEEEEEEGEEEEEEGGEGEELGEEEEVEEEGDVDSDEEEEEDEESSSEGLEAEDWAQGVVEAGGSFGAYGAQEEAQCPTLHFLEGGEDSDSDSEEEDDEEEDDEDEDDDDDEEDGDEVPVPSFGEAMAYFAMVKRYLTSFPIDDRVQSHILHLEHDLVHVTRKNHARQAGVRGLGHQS
Chain of SSB (P05455 whole entry): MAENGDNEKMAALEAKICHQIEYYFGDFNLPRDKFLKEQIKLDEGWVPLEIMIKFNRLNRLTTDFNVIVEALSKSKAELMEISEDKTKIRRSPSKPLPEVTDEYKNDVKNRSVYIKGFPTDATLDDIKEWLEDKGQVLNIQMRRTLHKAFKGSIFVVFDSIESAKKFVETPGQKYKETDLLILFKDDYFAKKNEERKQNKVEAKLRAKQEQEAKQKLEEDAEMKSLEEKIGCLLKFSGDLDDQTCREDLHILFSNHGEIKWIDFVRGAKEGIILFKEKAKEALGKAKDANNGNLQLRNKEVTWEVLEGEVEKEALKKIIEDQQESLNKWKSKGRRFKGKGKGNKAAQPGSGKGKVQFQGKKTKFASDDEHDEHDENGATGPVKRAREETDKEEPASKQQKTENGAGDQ
Chain of Jo-1 (P12081 whole entry): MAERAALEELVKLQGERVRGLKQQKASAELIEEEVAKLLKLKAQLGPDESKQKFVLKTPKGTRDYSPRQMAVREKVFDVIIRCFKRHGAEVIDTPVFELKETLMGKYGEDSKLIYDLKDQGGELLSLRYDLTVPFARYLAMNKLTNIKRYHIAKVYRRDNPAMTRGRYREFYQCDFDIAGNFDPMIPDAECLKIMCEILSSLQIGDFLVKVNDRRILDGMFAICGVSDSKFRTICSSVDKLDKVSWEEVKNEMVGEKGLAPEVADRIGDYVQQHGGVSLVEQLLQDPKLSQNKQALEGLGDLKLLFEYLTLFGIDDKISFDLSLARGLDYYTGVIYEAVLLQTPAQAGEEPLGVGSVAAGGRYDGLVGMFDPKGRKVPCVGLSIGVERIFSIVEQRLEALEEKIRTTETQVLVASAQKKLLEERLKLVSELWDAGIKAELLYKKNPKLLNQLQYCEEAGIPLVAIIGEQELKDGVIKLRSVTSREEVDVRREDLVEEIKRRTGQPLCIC

Q: What does the source list for 4E10 (antibody)?
A: AtheNA signal (relative luminescence units) (Centromere B [1]): 3; AtheNA signal (relative luminescence units) (Histones [2]): 10; AtheNA signal (relative luminescence units) (Jo-1 [3]): 160; AtheNA signal (relative luminescence units) (RNP (ribonucleoprotein) [4]): 3; AtheNA signal (relative luminescence units) (SSA [5]): 33; AtheNA signal (relative luminescence units) (SSB [6]): 227; AtheNA signal (relative luminescence units) (Scl-70 [7]): 1; AtheNA signal (relative luminescence units) (Sm (Smith antigen) [8]): 2; AtheNA signal (relative luminescence units) (Jo-1 [9]): 190; AtheNA signal (relative luminescence units) (SSB [10]): 263; AtheNA signal (relative luminescence units) (Centromere B [11]): 9; AtheNA signal (relative luminescence units) (Histones [12]): 24; AtheNA signal (relative luminescence units) (Jo-1 [13]): 206; AtheNA signal (relative luminescence units) (RNP (ribonucleoprotein) [14]): 20; AtheNA signal (relative luminescence units) (SSA [15]): 81; AtheNA signal (relative luminescence units) (SSB [16]): 189; AtheNA signal (relative luminescence units) (Scl-70 [17]): 4; AtheNA signal (relative luminescence units) (Sm (Smith antigen) [18]): 46; AtheNA signal (relative luminescence units) (Jo-1 [19]): 227; AtheNA signal (relative luminescence units) (SSB [20]): 207; AtheNA signal (relative luminescence units) (Centromere B [21]): 1; AtheNA signal (relative luminescence units) (Histones [22]): 7; AtheNA signal (relative luminescence units) (Jo-1 [23]): 131; AtheNA signal (relative luminescence units) (RNP (ribonucleoprotein) [24]): 3; AtheNA signal (relative luminescence units) (SSA [25]): 21; AtheNA signal (relative luminescence units) (SSB [26]): 199; AtheNA signal (relative luminescence units) (Scl-70 [27]): 0; AtheNA signal (relative luminescence units) (Sm (Smith antigen) [28]): 3; AtheNA signal (relative luminescence units) (Centromere B [29]): 2; AtheNA signal (relative luminescence units) (Histones [30]): 6; AtheNA signal (relative luminescence units) (Jo-1 [31]): 113; AtheNA signal (relative luminescence units) (RNP (ribonucleoprotein) [32]): 3; AtheNA signal (relative luminescence units) (SSA [33]): 17; AtheNA signal (relative luminescence units) (SSB [34]): 178; AtheNA signal (relative luminescence units) (Scl-70 [35]): 1; AtheNA signal (relative luminescence units) (Sm (Smith antigen) [36]): 3

Q: How did the LogAUC (CH505.M10D8gp120) turn out when CH105 (antibody) was run?
A: 11.3

Q: And the LogAUC (CH505.M11D8gp120/293F)?
A: 11.7

Q: And the LogAUC (CH505.M19D8gp120)?
A: 10.9

Q: And the LogAUC (CH505.M21D8gp120/293F)?
A: 11.2

Q: And the LogAUC (CH505.M5D8gp120293F)?
A: 8.63

Q: What about the LogAUC (CH505.M7D8gp120/293F) of the same substance?
A: 10.2

Q: And the LogAUC (CH505.M9D8gp120/293F)?
A: 10.6

Q: And the LogAUC [37]?
A: 10.6

Q: What about the LogAUC [38] of the same substance?
A: 11.1

Q: And the LogAUC [39]?
A: 9.33

Q: And the LogAUC [40]?
A: 11

Q: What about the LogAUC [41] of the same substance?
A: 12.7

Q: What about the LogAUC [42] of the same substance?
A: 8.52

Q: What about the LogAUC [43] of the same substance?
A: 9.67

Q: And the LogAUC [44]?
A: 13.7

Q: What about the LogAUC [45] of the same substance?
A: 10.7

Q: And the LogAUC [46]?
A: 10.4

Q: What about the LogAUC [47] of the same substance?
A: 10.2

Q: And the LogAUC [48]?
A: 12.4

Q: What about the LogAUC [49] of the same substance?
A: 12.8

Q: What about the LogAUC [50] of the same substance?
A: 12

Q: And the LogAUC [51]?
A: 10.7

Q: And the LogAUC [52]?
A: 10.6

Q: And the LogAUC [53]?
A: 9.86

Q: What about the LogAUC [54] of the same substance?
A: 6.66

Q: What about the LogAUC [55] of the same substance?
A: 7.7

Q: And the LogAUC [56]?
A: 11.1

Q: What about the LogAUC [57] of the same substance?
A: 6.58

Q: And the LogAUC [58]?
A: 8.61

Q: And the LogAUC [59]?
A: 6.55

Q: And the LogAUC [60]?
A: 6.03

Q: And the LogAUC [61]?
A: 4.58

Q: And the LogAUC [62]?
A: 4.94

Q: What about the LogAUC [63] of the same substance?
A: 12.2
